The values below are quoted from earlier work in article PMC4850115.

This series has as its target p38 (Homo sapiens) (UniProt Q16539).
UniProt Q16539, sequence (Q16539 2-360): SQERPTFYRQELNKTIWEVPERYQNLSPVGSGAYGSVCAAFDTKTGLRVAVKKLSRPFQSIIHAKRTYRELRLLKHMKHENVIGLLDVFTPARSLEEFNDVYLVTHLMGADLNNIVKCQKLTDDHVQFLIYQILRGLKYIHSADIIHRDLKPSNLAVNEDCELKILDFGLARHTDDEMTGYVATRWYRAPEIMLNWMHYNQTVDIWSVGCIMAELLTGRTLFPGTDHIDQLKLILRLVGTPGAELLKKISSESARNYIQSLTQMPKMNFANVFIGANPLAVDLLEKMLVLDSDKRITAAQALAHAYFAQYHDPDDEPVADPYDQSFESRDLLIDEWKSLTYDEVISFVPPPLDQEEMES

Consider MK2 370-400 (from UniProt P49137), for which the Kd is 0.02 µM.
